Holding throughout (assay): cell-based or functional assay
One test deals with MAPKAP kinase II (MK2) (UniProt P49137).
In test [1] the target is PKC β 1 (h) (human (h)), P05771.
In test [2] the target is PKG1α (h) (human (h)), Q13976.

Where no end group is shown, it is not given here. [ ]: non-standard residue; d: D form.

Sequence of MAPKAP kinase II (MK2) (P49137 whole entry): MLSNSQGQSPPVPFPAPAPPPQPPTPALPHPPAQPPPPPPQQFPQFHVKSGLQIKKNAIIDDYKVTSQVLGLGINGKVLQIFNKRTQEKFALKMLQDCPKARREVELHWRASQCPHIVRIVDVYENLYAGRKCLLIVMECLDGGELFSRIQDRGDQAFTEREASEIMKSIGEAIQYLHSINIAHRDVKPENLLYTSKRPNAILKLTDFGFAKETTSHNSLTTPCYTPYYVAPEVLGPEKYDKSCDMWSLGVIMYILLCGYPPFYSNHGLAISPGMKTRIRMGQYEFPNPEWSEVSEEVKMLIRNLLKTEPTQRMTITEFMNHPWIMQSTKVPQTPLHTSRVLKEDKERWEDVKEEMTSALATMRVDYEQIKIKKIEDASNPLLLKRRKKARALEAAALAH
Sequence of PKC β 1 (h) (human (h)), P05771 (P05771 whole entry): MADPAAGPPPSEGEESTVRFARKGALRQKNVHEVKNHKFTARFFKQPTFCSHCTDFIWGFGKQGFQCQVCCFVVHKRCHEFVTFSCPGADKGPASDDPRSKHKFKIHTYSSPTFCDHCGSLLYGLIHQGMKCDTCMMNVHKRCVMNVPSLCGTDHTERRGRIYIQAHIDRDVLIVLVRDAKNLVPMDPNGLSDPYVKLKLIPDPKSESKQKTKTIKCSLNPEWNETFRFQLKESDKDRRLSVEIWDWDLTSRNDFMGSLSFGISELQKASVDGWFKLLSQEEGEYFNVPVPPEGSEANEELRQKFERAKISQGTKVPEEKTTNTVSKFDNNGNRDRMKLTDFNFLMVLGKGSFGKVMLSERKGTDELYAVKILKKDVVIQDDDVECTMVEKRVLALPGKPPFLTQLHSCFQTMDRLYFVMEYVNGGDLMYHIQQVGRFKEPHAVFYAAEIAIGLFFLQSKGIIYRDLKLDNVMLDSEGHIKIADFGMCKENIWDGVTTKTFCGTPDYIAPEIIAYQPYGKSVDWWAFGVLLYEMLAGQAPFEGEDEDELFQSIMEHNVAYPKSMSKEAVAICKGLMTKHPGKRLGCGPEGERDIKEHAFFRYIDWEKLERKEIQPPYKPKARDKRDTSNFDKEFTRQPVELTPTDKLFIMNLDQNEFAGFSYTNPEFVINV
Sequence of PKG1α (h) (human (h)), Q13976 (Q13976 whole entry): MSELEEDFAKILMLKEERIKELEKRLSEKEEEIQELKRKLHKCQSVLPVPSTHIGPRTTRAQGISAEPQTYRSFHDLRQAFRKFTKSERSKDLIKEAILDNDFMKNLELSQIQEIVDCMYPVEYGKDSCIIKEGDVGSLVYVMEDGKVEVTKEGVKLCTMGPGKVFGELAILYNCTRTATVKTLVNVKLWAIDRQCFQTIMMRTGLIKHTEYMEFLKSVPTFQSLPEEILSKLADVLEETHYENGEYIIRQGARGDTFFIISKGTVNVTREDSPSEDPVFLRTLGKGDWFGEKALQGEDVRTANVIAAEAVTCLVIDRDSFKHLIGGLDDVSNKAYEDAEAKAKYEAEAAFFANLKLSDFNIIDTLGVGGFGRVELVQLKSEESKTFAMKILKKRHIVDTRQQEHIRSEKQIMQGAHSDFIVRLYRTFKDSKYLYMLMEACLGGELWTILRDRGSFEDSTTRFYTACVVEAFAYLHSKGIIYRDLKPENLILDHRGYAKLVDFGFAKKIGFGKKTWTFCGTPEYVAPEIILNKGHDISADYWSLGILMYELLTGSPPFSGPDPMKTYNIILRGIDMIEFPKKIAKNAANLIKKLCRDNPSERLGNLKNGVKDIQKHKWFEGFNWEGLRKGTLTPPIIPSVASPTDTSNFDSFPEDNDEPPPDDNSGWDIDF

B1: KALNdRQLGVAA (peptide, from a related filing)
peptide: KALN[dR]QLGVAA
As for B1, in the test with MAPKAP kinase II (MK2), the % of … [SEQ ID NO: 124] Reaction Velocity at an Inhibitor Concentration of 100 µM stood at 306%.

B2: KALdNRQLGVAA (peptide, from a related filing)
peptide: KAL[dN]RQLGVAA
As to B2, the % of … [SEQ ID NO: 124] Reaction Velocity at an Inhibitor Concentration of 100 µM in the test with MAPKAP kinase II (MK2) worked out at 95%.

B3: KAd… (peptide, from a related filing)
peptide: KA[dL]NRQLGVAA
As to B3, in the test with MAPKAP kinase II (MK2), the % of … [SEQ ID NO: 124] Reaction Velocity at an Inhibitor Concentration of 100 µM is 146%.

B4: … (peptide)
peptide: KAFAKLAARLYRKALARQLGVAA
B4: the Profile-1 @ = 100 µm (kinase profiler assay) in test [1] was 23; in test [2], 25.

B5: … (peptide)
peptide: FAKLAARLYRKALARQLGVAA
For the molecule B5, the results for the Profile-1 @ = 100 µm (kinase profiler assay) in test [1] and in test [2] were 73 and 12, respectively.

B6: … (peptide)
peptide: WLRRIKAWLRRIKALNRQLGVAA
For the molecule B6, the values for the Profile-1 @ = 30 µm (kinase profiler assay) in test [1] and in test [2] were 8 and 16, respectively.

B7: KALNRQLGdVAA (peptide, from a related filing)
peptide: KALNRQLG[dV]AA
Molecule B7 registered a % of … [SEQ ID NO: 124] Reaction Velocity at an Inhibitor Concentration of 100 µM with MAPKAP kinase II (MK2) of 260%.

The values are drawn from patent publication US20090149389A1.
